# Experimental data published in article PMC4402530, “Unwinding forward and sliding back: an intermittent unwinding mode of the BLM helicase”.
# B1: F18 ssDNA (18 nt) (ssDNA)
# DNA: GCCTCGCTGCCGTCGCCA
# B2: F18/F18 bis dsDNA (18 bp) (dsDNA)
# DNA 1: GCCTCGCTGCCGTCGCCA
# DNA 2: TGGCGACGGCAGCGAGGC
# Columns and labels:
# Assay in all cases: fluorescence anisotropy; 1 mM MgCl2, no ATP listed; 25 mM Tris-HCl pH 7.5 (last digit split in text), 100 mM NaCl, 1 mM MgCl2, 3 mM DTT, 5 nM DNA, 25 C, 5 min equilibration; Hill fit
# Details in all cases: protein: recombinant
# BLM642-1290 S1121A = BLM642-1290 S1121A (human, UniProt P54132 642-1290, S1121A)
# [1] = target: BLM642-1290 helicase core, wild type (human, UniProt P54132 642-1290)
# BLM642-1290 T1110G = BLM642-1290 T1110G (human, UniProt P54132 642-1290, T1110G)
# BLM642-1290 K1125A = BLM642-1290 K1125A (human, UniProt P54132 642-1290, K1125A)
# [2] = label: 3' fluorescein on F18, blunt
# Chain of BLM642-1290 S1121A (P54132 642-1290 S1121A): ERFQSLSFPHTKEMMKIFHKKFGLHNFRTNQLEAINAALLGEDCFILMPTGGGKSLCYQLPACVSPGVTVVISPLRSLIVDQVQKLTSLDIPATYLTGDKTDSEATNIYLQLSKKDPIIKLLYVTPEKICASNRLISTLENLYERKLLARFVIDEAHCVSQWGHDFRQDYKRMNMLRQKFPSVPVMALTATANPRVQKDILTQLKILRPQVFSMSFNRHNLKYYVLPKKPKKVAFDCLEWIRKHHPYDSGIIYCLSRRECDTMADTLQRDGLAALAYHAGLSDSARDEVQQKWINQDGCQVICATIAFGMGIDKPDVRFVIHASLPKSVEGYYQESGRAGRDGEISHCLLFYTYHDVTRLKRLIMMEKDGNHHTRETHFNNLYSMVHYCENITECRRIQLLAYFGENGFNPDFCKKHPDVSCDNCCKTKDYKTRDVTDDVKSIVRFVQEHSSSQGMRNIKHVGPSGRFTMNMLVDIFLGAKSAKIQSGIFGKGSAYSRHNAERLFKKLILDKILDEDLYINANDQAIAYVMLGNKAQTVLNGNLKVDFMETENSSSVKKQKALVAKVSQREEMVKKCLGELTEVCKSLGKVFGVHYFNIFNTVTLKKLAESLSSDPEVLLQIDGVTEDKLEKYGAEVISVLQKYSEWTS
# Chain of BLM642-1290 T1110G (P54132 642-1290 T1110G): as the sequence (P54132 642-1290 S1121A) above, with T469G, A480S counted along it
# Chain of BLM642-1290 K1125A (P54132 642-1290 K1125A): as the sequence (P54132 642-1290 S1121A) above, with A480S, K484A counted along it
# Chain of BLM642-1290 helicase core, wild type (P54132 642-1290): as the sequence (P54132 642-1290 S1121A) above, with A480S counted along it
Binder,Kd (BLM642-1290 S1121A; label: 3' fluorescein) [nM],Kd ([1]; label: 3' fluorescein) [nM],Kd (BLM642-1290 T1110G; label: 3' fluorescein) [nM],Kd (BLM642-1290 K1125A; label: 3' fluorescein) [nM],Kd (BLM642-1290 S1121A; [2]) [nM],"Kd [1, 2] [nM]",Kd (BLM642-1290 T1110G; [2]) [nM],Kd (BLM642-1290 K1125A; [2]) [nM]
B1,27.1 ± 3.7,17.2 ± 1.6,29.7 ± 3.6,21.3 ± 2.9,–,–,–,–
B2,–,–,–,–,14.9 ± 1.7,4.6 ± 0.5,78.2 ± 7.2,28.6 ± 2.6
